The values below come from PMC9861184.

The test system of this series is T1, SigW (ECF sigma factor, GST fusion) (Pseudomonas donghuensis HYS), ORF:b11b1795.
T1 sequence: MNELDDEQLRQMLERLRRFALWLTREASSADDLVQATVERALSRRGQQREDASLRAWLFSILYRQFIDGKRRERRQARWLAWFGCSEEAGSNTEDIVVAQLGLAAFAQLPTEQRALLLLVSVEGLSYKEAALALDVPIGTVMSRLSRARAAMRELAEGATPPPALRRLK
As to the kind of experiment: EMSA. Conditions: EMSA: 0.3 uM DNA in 20 uL, 10 mM Tris-HCl pH 7.5, 150 mM NaCl, 2 mM DTT, 2 mM EDTA, 10% glycerol, 30 C 40 min; 6.8% native PAGE in 0.5x TBE on ice, EB stain. Background: Mobility shift assays separate free from complexed probe on a gel.
Regarding “CCCTACCGTATTTGAACGGCTGGCCAGCCCTCTGTGTCCTTGCACGCCCTTGAGTTAGGGCCTGCATGCCCCATTTGCGGGCAGAGAACACTGCCGGTTCAAAGACATTCAGGGAAAAACCTCCAGGATCGGAGCCCCGTGGTCTGGCTGGCAGTCTTTCTCACAAATGCGATCAGGTAAATTCTGGAGTCATTCGTGAAACAAGCTCAACTTCCGCGCAAGATACCCACACAAGCCCGCTCGAGG (double strand) [orf12 promoter]”, the binding result is reported as “binds”.

Regarding “CGAACTCATGGCCTGCCCCCGGGAACGGGCGCAGGGGCACGGTAAAACAGGTACAGGCGCATGGCTTCAGAACTCCGGGTAATTGAGGTACCCGGCAAGTCTATGGAGGCCGATTACTGACGAAAACTGACATATTCGCAGCTTTATGCTGCATGAGACGCAACTATACGATCAGGTATATATAAGCGCTCAAAAGCATC (double strand) [orf2-orf5 promoter]”, the binding result is listed as “binds more weakly”.

As to “GCCCGCGTATTTCCTGAGCTCAACCTGAGCAATCACGCAGCGCCGCACTCGGTTATTTGAATGCGAGTAGCCATAGCACGGCAACTTGCCTAGGATAAGAAACAAATTGAAACGTTGTTAAAAGTGACAACTACCCGCTCAACGATGTTTCAACTTTCTTGCAATCTTCAGCCCCACAAATCAATAAAAGGACGTTCACGATGAGCAACAAGGGTTTTGACACCG (double strand) [orf9-orf6 promoter]”, the binding result is listed as “binds”.

As to “TCAATGGCGATCAGTACCGAGCTGTACATGGTGACGGGACCCATTCTGAATACAAAGAGCAGGCATTCTTGAAAAAGCGTGCGGCCGGGTAAATGGTGCGCGGTGCAATGACTAGTTGCGCAGAATGCAAGGGCTGGAAAACCTGCAGAAACTGGTAAGATTGCAGCGGATTCACTGAAATACATGAATGGATGCTTACCATGCACTTTCCGGATA (double strand) [orf1 promoter]”, the binding result is “binds”.
